Article PMC11514480
Like-named read-outs stand apart in the source and are kept apart here.

How the values were obtained:
Experiment in all cases: smFRET
yeast RPA = yeast RPA (Saccharomyces cerevisiae, UniProt P22336;P26754;P26755 1-621;1-273;1-122)
[1] = target: T1, human RPA (RPA70-RPA32-RPA14) (human, UniProt P27694;P15927;P35244 1-616;1-270;1-121)
[2] = target: T1, human RPA (RPA70-RPA32-RPA14); remark: listed apart in the source

T1 sequence (P27694 whole entry, chain 1 of 3): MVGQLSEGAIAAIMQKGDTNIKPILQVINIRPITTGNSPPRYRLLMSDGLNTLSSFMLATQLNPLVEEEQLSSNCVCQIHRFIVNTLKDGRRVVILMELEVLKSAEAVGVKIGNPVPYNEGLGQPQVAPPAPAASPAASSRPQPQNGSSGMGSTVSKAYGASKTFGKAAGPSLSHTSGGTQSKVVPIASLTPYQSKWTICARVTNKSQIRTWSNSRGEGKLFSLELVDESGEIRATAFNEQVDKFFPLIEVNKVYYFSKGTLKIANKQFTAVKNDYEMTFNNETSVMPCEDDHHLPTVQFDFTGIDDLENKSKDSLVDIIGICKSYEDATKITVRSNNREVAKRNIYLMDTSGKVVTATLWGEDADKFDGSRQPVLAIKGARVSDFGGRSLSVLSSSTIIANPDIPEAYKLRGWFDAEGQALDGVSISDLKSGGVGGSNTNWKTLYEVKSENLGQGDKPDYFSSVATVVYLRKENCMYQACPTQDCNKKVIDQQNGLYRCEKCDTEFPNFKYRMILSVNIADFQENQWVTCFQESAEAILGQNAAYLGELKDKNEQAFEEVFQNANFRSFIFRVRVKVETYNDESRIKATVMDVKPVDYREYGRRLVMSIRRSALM
T1 sequence (P15927 whole entry, chain 2 of 3): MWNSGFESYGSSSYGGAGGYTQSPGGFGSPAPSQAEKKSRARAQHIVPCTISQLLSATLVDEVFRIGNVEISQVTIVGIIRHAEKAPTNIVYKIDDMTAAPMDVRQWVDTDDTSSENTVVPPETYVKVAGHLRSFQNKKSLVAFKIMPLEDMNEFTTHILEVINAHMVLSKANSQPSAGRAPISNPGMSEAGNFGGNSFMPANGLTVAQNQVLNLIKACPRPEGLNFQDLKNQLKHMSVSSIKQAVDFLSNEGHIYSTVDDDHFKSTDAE
T1 sequence (P35244 whole entry, chain 3 of 3): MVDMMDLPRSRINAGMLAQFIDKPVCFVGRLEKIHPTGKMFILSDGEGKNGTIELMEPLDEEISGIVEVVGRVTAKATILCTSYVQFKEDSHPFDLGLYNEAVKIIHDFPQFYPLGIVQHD
Sequence of yeast RPA (P22336 whole entry, chain 1 of 3): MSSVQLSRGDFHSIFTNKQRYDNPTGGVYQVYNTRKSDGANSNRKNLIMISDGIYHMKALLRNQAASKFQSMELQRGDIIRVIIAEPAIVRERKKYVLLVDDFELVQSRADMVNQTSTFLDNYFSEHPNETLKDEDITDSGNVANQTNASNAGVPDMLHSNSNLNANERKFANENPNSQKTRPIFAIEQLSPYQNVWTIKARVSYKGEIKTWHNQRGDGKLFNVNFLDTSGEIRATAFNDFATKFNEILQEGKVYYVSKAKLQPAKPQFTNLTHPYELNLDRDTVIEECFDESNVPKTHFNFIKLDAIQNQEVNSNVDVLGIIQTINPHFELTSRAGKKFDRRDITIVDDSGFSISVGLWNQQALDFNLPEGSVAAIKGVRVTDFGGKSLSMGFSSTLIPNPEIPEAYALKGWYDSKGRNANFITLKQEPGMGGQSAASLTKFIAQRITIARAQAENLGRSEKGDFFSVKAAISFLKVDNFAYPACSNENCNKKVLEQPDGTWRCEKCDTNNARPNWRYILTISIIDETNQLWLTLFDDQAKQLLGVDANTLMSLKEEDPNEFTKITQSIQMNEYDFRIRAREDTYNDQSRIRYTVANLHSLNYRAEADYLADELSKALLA
Sequence of yeast RPA (P26754 whole entry, chain 2 of 3): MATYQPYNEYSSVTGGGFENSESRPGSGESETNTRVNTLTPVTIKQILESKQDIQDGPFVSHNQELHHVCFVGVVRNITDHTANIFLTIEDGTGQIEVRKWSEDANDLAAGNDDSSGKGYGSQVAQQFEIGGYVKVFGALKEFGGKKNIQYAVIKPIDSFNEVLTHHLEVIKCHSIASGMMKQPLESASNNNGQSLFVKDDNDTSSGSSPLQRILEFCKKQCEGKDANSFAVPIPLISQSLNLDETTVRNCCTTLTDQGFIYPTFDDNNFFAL
Sequence of yeast RPA (P26755 whole entry, chain 3 of 3): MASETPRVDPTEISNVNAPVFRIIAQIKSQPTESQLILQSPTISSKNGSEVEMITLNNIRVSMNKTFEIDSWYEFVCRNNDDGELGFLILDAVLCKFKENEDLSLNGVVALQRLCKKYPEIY

Binder | binding result (yeast RPA) | binding result [1] | binding result [2]
TTTTTTTTTTTTTTTTTTTTTTTTT (ssDNA) [(dT)25] | binds | binds | –
TTTTTTTTTTTTTTTTTTTTTTTTTTTTTT (ssDNA) [(dT)30] | – | – | binds
TTTTTTTTTTTTTTT (ssDNA) [(dT)15] | – | – | binds
TTTTTTTTTTTTTTTTTTTTTTTTTTTTTTTTTTTTTTTTTTTTT (ssDNA) [(dT)45] | – | – | binds
